Columns and labels:
Experiment in all cases: CD
hZαADAR1 (Homo sapiens) = tested on: hZαADAR1 (Homo sapiens)
[1] = tested on: lsZαE3L (lumpy skin disease virus)
spZαE3L (swinepox virus) = tested on: spZαE3L (swinepox virus)

Substance: d(CG)n DNA for CD B-to-Z conversion
- binding signal (% B-to-Z conversion) (hZαADAR1 (Homo sapiens)): 100
- binding signal (% B-to-Z conversion) [1]: 90
- binding signal (% B-to-Z conversion) (spZαE3L (swinepox virus)): 65
